According to patent publication US20210386836:

Biological target: ENA-78

B1: PrtV(Pro-B) (protein)
chain: DTVNGSESVKTEATQASGSSVQDNATAKTTVTTNSNSSNNVSNVQTDTVKEAATSNVDSVASQNQATTAQQAKTTADTADQTVPPTTYKDHVKGNVQTAWDNGYKGQGMVVAVIDSGADTNHKDFSKAPESPAISKEDADKKISELGYGKYASEKFPFVYNYASRDNNWVKDDGPDASEHGQHVAGIIGADGQPNGNERYAVGVAPETQLMMMRVFNDQFADENTDDIAQAIYDAVKLGANVIQMSLGQGVAAANLNDVEQKAVEYATQHGVFVSISASNNGNSASVTGEEVPYKPGGADGNFEPFSSSTVANPGASRNAMTVAAENSVVGAGDDMADFSSWGPLQDFTLKPDVSAPGVSVTSTGNDNRYNTMSGTSMAGPFNAGVAALVMQRLKATTNLNGADLVQATKALIMNTAKPMTQQGYDTPVSPRRQGAGEIDAGAATESPVYVVAADGTSSVSLRKVGDSTQFALTFKNLSDKDQTYTFDDFGGGLTEVRDADTGTFHDVYLAGAHVYGNKTVTVKAGQSATYNFTLSLTGLKENQLVEGWLRFVGNDGQNQLVVPYLAYYGDMTSEDVFDKAANQEGTVYGGNYFVNEDNYPRGVADEDSLKALVNLEGNYNWQQVAKLYQDGKVAFSPNADGKSDLLKPYAFVKQNLKDLKVEVLDKSGKVVRVVADEQGLDKSYYESGVNKDVTLSVSMRNNPNTLAWDGKVYDDKAGEMVNAADGEYTYRYVATLYNDGVNKVQTADYPVVIDTTAPVLSNVKYDAATHTLSFDYKDTGSGFTDYSYAVVKVNDKTFGYKLNDGKNSKFLDAAKTSGTFKAVLGSDTLAALTAAKNALSVAVSDVADNTSTVTLLVNGNNDATTKVSVWNATNGLELDQSSPDYQAATSTYNLRGNATSDFYYNGALVQVDNSGNFVVPVSTSDTAVVFTSDAAGKNVVYKLNTATPKAVFAWQVNNTVKENFGIVLDTVVSNNKDDVVVQAAVTKGDNVEAYARDYFTGAVYKADVKDGLATFHVKVTNNSGRTVLLGWTEVVGPTFNDVQRTSANGVYLGVDTDTENPTPAPAFTSADQLGTNVVQEKADSATIGNPGDLPGHSLKDLTTRADANPDIHFDYLKDNDYNWVGAQAVKDGVYNPSTQVFTLTGKVDPNVKSLVVLGDSYNEDDPVNKVNLNSDGTFSFQFHTAPTSQRPVAYIYTKDDGSTTRGTMELILDTVLPTLSLNNVANLQLDSNGDYQVYTNNKDFSVSGEATDNLDGYRFFFNGDNDYREFHNSGVNFVAEAHQDGSTVTNPYPAYKFSKTFNLADATGETTHVYTLSVVDLTGNTVTRKFYVHY
protein cleavage assay (SDS-PAGE): has activities against
